According to US20190270826A1 (Janssen / Centocor, published 2019):

Assays:
[1] = molecular target: T1, recombinant human IL1RAP ECD (human, UniProt Q9NPH3 21-367); assay: SPR
T1 construct: His-tagged; also called hIL1RAP-ECD; rhuIL1RAP
T1 sequence: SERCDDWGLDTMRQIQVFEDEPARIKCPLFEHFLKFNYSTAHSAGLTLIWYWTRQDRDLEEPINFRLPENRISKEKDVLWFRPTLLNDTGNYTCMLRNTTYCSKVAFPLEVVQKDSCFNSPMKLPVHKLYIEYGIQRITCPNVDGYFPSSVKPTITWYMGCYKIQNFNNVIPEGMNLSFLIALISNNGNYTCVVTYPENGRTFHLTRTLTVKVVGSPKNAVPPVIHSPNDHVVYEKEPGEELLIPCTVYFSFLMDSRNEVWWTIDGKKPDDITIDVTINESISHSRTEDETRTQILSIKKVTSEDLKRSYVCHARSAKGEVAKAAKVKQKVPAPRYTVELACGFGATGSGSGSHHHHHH

[2] = molecular target: T2, recombinant cyno IL1RAP ECD (cynomolgus monkey, UniProt P59822 21-367 (rhesus entry)); assay: SPR
T2 construct: also called rcynoIL1RAP
T2 sequence: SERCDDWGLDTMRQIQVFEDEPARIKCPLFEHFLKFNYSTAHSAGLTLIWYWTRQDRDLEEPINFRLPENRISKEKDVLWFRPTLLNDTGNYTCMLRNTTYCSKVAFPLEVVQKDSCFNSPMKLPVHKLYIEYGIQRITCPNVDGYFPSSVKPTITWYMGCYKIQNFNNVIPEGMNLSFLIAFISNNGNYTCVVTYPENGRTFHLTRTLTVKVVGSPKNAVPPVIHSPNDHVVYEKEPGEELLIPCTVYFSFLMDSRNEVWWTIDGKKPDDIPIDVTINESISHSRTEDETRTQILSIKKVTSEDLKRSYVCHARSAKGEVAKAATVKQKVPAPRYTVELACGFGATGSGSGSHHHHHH

[3] = molecular target: T1, recombinant human IL1RAP ECD; assay: SPR, summary
[4] = molecular target: T2, recombinant cyno IL1RAP ECD; assay: SPR, summary
[5] = molecular target: T3, human IL1RAP on cells (endogenous) (human, UniProt Q9NPH3 21-570); assay: cell-based or functional assay
T3 sequence (looked up): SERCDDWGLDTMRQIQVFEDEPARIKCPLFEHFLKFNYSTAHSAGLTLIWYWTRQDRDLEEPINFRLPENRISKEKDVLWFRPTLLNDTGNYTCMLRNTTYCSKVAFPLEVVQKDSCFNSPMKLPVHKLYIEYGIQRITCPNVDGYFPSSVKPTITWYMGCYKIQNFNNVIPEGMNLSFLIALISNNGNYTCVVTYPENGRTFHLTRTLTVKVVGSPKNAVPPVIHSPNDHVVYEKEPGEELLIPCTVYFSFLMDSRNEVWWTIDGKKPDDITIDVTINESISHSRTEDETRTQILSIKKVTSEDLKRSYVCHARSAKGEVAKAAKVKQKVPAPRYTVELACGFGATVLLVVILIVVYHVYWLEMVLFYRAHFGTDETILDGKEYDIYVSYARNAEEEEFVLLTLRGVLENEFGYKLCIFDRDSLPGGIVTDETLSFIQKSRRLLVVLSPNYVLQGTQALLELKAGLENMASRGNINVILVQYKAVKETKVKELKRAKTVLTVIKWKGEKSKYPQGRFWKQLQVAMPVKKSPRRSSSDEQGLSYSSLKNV

[6] = molecular target: T1, recombinant human IL1RAP ECD; assay: SPR; remark: listed apart in the source
[7] = molecular target: T2, recombinant cyno IL1RAP ECD; assay: SPR; remark: listed apart in the source
[8] = molecular target: T1, recombinant human IL1RAP ECD; assay: SPR; human KD over cyno KD
[9] = molecular target: T1, recombinant human IL1RAP ECD; assay: SPR (ProteOn)
Procedure: The rates of IL1RAP ECD association and dissociation were measured for each variant. The biosensor surface was prepared by covalently coupling Goat anti-Human IgG (Fc) to the surface of a GLC chip (BioRad) using the manufacturer instructions for amine-coupling chemistry. […] The RU immobilized also included a goat anti-mouse Fc antibody that was added to capture other antibodies not included in the ones reported here. Since the mixture was 1:1 about 50% of these RU immobilized are expected to be goat anti-human Fc. The kinetic experiments were performed at 25° C. in running buffer (PBS pH 7.4, 0.005% P20, 3 mM EDTA). […] (1:3) serial dilutions of human IL1RAP ECD, starting at 400 nM were prepared in running buffer. […] The reference spots (Goat anti-Human IgG (Fc)-modified surface) containing no candidate captured were used as a reference surface. Capture of mAb was followed by a 3 minute injection (association phase) of antigen at 40 μL/min, followed by 10 minutes of buffer flow (dissociation phase). […] Data was processed on the instrument software. Double reference subtraction of the data was performed by subtracting the curves generated by buffer injection from the reference-subtracted curves for analyte injections. Kinetic analysis of the data was performed using 1:1 Langmuir binding model with group fit.

| Binder | Kd [1] [nM] | koff [1] [s⁻¹] | kon [1] [M⁻¹ s⁻¹] | Kd [2] [nM] | koff [2] [s⁻¹] | kon [2] [M⁻¹ s⁻¹] | Kd [3] [nM] | Kd [4] [nM] | EC50, T-cell mediated cytotoxicity [5] [nM] | Kd [6] [nM] | Kd [7] [nM] | Hu/Cyno KD Ratio [8] | Kd [9] [nM] | koff [9] [s⁻¹] | kon [9] [M⁻¹ s⁻¹] |
| --- | --- | --- | --- | --- | --- | --- | --- | --- | --- | --- | --- | --- | --- | --- | --- |
| IC3B1 (bispecific antibody, human IgG4 S228P, kappa, lambda, F234A L235A, IgG4-PAA, Fab arm exchange; also called IAPB47 x CD3B220) heavy 1: EVQLVESGGGLVQPGGSLKLSCAASGFTFNTYAMNWVRQASGKGLEWVGRIRSKYNAYATYYAASVKGRFTISRDDSKNTAYLQMNSLKTEDTAVYYCTRHGNFGNSYVSWFAYWGQGTLVTVSSASTKGPSVFPLAPCSRSTSESTAALGCLVKDYFPEPVTVSWNSGALTSGVHTFPAVLQSSGLYSLSSVVTVPSSSLGTKTYTCNVDHKPSNTKVDKRVESKYGPPCPPCPAPEAAGGPSVFLFPPKPKDTLMISRTPEVTCVVVDVSQEDPEVQFNWYVDGVEVHNAKTKPREEQFNSTYRVVSVLTVLHQDWLNGKEYKCKVSNKGLPSSIEKTISKAKGQPREPQVYTLPPSQEEMTKNQVSLTCLVKGFYPSDIAVEWESNGQPENNYKTTPPVLDSDGSFLLYSKLTVDKSRWQEGNVFSCSVMHEALHNHYTQKSLSLSLGK light 1: QAVVTQEPSLTVSPGGTVTLTCRSSTGAVTTSNYANWVQQKPGQAPRGLIGGTNKRAPGTPARFSGSLLGGKAALTLSGAQPEDEAEYYCALWYSNLWVFGGGTKLTVLGQPKAAPSVTLFPPSSEELQANKATLVCLISDFYPGAVTVAWKADSSPVKAGVETTTPSKQSNNKYAASSYLSLTPEQWKSHRSYSCQVTHEGSTVEKTVAPTECS heavy 2: not shown light 2: EIVLTQSPGTLSLSPGERATLSCRASQSISNDLNWYQQKPGKAPKLLIYYASSLQSGVPSRFSGSGSGTDFTLTINSLQPEDFATYYCQQSFTAPLTFGQGTKVEIKRTVAAPSVFIFPPSDEQLKSGTASVVCLLNNFYPREAKVQWKVDNALQSGNSQESVTEQDSKDSTYSLSSTLTLSKADYEKHKVYACEVTHQGLSSPVTKSFNRGEC | 1.09 | 0.000759 | 697000 | 0.212 | 0.000236 | 1.11e+06 | 1.09 | 0.212 | 0.049 | 1.09 | 0.212 | 5.1 |  |  |  |
| IC3B4 (bispecific antibody, human IgG4 S228P, kappa, lambda, F234A L235A, IgG4-PAA, Fab arm exchange; also called IAPB61 x CD3B220) heavy 1: EVQLVESGGGLVQPGGSLKLSCAASGFTFNTYAMNWVRQASGKGLEWVGRIRSKYNAYATYYAASVKGRFTISRDDSKNTAYLQMNSLKTEDTAVYYCTRHGNFGNSYVSWFAYWGQGTLVTVSSASTKGPSVFPLAPCSRSTSESTAALGCLVKDYFPEPVTVSWNSGALTSGVHTFPAVLQSSGLYSLSSVVTVPSSSLGTKTYTCNVDHKPSNTKVDKRVESKYGPPCPPCPAPEAAGGPSVFLFPPKPKDTLMISRTPEVTCVVVDVSQEDPEVQFNWYVDGVEVHNAKTKPREEQFNSTYRVVSVLTVLHQDWLNGKEYKCKVSNKGLPSSIEKTISKAKGQPREPQVYTLPPSQEEMTKNQVSLTCLVKGFYPSDIAVEWESNGQPENNYKTTPPVLDSDGSFLLYSKLTVDKSRWQEGNVFSCSVMHEALHNHYTQKSLSLSLGK light 1: QAVVTQEPSLTVSPGGTVTLTCRSSTGAVTTSNYANWVQQKPGQAPRGLIGGTNKRAPGTPARFSGSLLGGKAALTLSGAQPEDEAEYYCALWYSNLWVFGGGTKLTVLGQPKAAPSVTLFPPSSEELQANKATLVCLISDFYPGAVTVAWKADSSPVKAGVETTTPSKQSNNKYAASSYLSLTPEQWKSHRSYSCQVTHEGSTVEKTVAPTECS heavy 2: not shown light 2: not shown | 11.2 | 0.0129 | 1.15e+06 | 10.2 | 0.0148 | 1.46e+06 | 11.2 | 10.2 |  | 11.2 | 10.2 | 1.1 |  |  |  |
| IAPB55, 22A09 (hybridoma mAb, unpurified) (antibody, V domains shown, OmniRat hybridoma product (rat constant region)) VH: QLQLQESGPGLVKPSETLSLTCTVSGVSISSSTYYWGWLRQPPGMGLEWTGSIYFTGNTYYNPSLKSRVTISVDTSRNQFSLKLSSVTAADTAVYYCGSLFGDYGYFDYWGQGTLVTVSS VL: EIVMTQSPATLSVSPGERATLSCRASQFISSNLAWYQQKPGQAPRLLIYGASTRATGIPARFSGSGSGTDFTLTISSLQSEDFAVYYCQQYNNWPFTFGPGTKVDIK |  |  |  |  |  |  |  |  |  |  |  |  | 1.64 | 0.000747 | 454000 |
| IAPB61, 25D12 (hybridoma mAb, unpurified) (antibody, V domains shown, OmniRat hybridoma product (rat constant region)) VH: QLQLQESGPGLVKPSETLSLTCTVSGVSISSSTYYWGWLRQPPGMGLEWTGSIYFTGNTYYNPSLKSRVTISVDTSRNQFSLKLSSVTAADTAVYYCGSLFGDYGYFDYWGQGTLVTVSS VL: EIVMTQSPATLSVPPGERATLSCRASQFISSNLAWYQQKPGQAPRLLIYGASTRATGIPARFSGSGSGTDFTLTISSLQSEDFAVYYCQQYNNWPSTFGPGTKVDIK |  |  |  |  |  |  |  |  |  |  |  |  | 17.5 | 0.0142 | 810000 |
| IAPB57, 5G08 (hybridoma mAb, unpurified) (antibody, V domains shown, OmniRat hybridoma product (rat constant region)) VH: QLQLQESGPGLVKPSETLSLTCTVSGGSISSSTYYWGWIRQPPGKGLEWIGSIYFTGSTDYNPSLKSRVSISVDTSKNQFSLKLSSVTAADTAVYYCAKEDDSSGYYSFDYWGQGNLVTVSS VL: DIQLTQSPSFLSASVGDRVTITCRASQGISSYLAWYQQKPGKAPKLLIYAASTLQSGVPSRFSGSGSGTEFTLTISSLQPEDFATYYCQQVNSYPLTFGGGTKVEIK |  |  |  |  |  |  |  |  |  |  |  |  | 0.16 | 0.000129 | 807000 |
| IC3B9 (bispecific antibody, human IgG4 S228P, kappa, lambda, F234A L235A, IgG4-PAA, Fab arm exchange; also called IAPB25 x CD3B220) heavy 1: EVQLVESGGGLVQPGGSLKLSCAASGFTFNTYAMNWVRQASGKGLEWVGRIRSKYNAYATYYAASVKGRFTISRDDSKNTAYLQMNSLKTEDTAVYYCTRHGNFGNSYVSWFAYWGQGTLVTVSSASTKGPSVFPLAPCSRSTSESTAALGCLVKDYFPEPVTVSWNSGALTSGVHTFPAVLQSSGLYSLSSVVTVPSSSLGTKTYTCNVDHKPSNTKVDKRVESKYGPPCPPCPAPEAAGGPSVFLFPPKPKDTLMISRTPEVTCVVVDVSQEDPEVQFNWYVDGVEVHNAKTKPREEQFNSTYRVVSVLTVLHQDWLNGKEYKCKVSNKGLPSSIEKTISKAKGQPREPQVYTLPPSQEEMTKNQVSLTCLVKGFYPSDIAVEWESNGQPENNYKTTPPVLDSDGSFLLYSKLTVDKSRWQEGNVFSCSVMHEALHNHYTQKSLSLSLGK light 1: QAVVTQEPSLTVSPGGTVTLTCRSSTGAVTTSNYANWVQQKPGQAPRGLIGGTNKRAPGTPARFSGSLLGGKAALTLSGAQPEDEAEYYCALWYSNLWVFGGGTKLTVLGQPKAAPSVTLFPPSSEELQANKATLVCLISDFYPGAVTVAWKADSSPVKAGVETTTPSKQSNNKYAASSYLSLTPEQWKSHRSYSCQVTHEGSTVEKTVAPTECS heavy 2: not shown light 2: not shown | 29.7 | 0.0547 | 1.84e+06 | 27.8 | 0.053 | 1.91e+06 | 29.7 | 27.8 |  | 29.7 | 27.8 | 1.1 |  |  |  |
